Molecular target: C5a receptor (CD88) on differentiated U937 cells (UniProt P21730)
Assay: cell-based or functional assay

C5a receptor (CD88) on differentiated U937 cells, sequence (P21730 whole entry): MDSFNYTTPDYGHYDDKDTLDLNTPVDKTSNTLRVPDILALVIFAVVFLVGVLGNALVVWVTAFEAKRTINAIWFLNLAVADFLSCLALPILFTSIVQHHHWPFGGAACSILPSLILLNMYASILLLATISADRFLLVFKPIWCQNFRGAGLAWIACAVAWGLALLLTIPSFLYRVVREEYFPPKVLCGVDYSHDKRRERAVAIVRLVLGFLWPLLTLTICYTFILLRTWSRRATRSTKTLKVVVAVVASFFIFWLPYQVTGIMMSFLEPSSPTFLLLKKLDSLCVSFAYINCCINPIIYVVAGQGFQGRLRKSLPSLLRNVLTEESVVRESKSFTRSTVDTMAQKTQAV

chemotactic response of U937 cells	chemotaxis of U937 cells, maximal effective concentration	Substance
0.8 nM		His6-tagged monkey C5a (His6-macC5a) (ligand)
	1 nM	recombinant human C5a (from UniProt P01031 678-751) (ligand)

— US20120065254A1
